# Assay results published in the DeepSol protein solubility set.
# Assay: soluble on expression in E. coli; label from the status in PepcDB or PDB records
row,Sequence,soluble on expression in E. coli
1,MAAQPNAPESAWPVRELNSKVKSWIERLGHLWVEGQITQLNMKPSWKFSYITLRDPEAEASVQLTCATSLLHSLPSRLQDGDRVVVYGKPAFYEGRGSFSLWVTDIRPVGVGELLARIERLRQQLASEGLFDPALKKPLPFLPHTIGLITGRGSAAERDVLAVAHSRWPEVKFNVINTAVQGARAVPEIIEALQRLDADPSVDVIIIARGGGSVEDLLPFSEEALQRAVVAAHTPVVSAIGHEPDNPVLDNVADLRAATPTDAAKKVVPDVAAERQLIAELRSRSAAALRGWVHKERQQLAAVRSRPALADPVRAITLHREEIARSISSIRRDMRYMLSTERATVASLRQQVAALGPSATLARGYAVVQVVPRDGSAPEVVTTIGMSPPGSQLRIRVADGSITAAAMQTTPAD,not soluble
2,MGSDKIHHHHHHMSVSISEKTKQAYQHAVEQASVSLLRQPQNSMADELRLLAEQLQPNEKRDVYGGGSLINDFEDEVAELLGKPAALFLPTGTLAQPLALRVHADERQRNGVALHPTSHLMLHEHMGFEALWKLNGTTTGFADNPITLNDLKSVQTDDLASVLLELPMREIGGQLPNWDDLVMQSEWARQHNIAMHLDGARLWQVPAAYGCSLPEVCELFDSVYVSFYKDLGGISGAILAGSEGFIEQAKIWARRAGGNIITQYPQVLSARHGLKENLPIMPEAVNYARALGEALSALNGVRVNPETPQVAMFHLHFALKANELSEKITDYASNTGVVLLPLPRAEMNNEAICEVSIGRNAMSQPQSFWLRHFKAFLDTL,not soluble
3,MGHHHHHHSHMGSELIGRLAPRLGLAEPDMLRKAEEYLRLSRVKCVGLSARTTETSSAVMCLDLAASWMKCPLDRAYLIKLSGLNKETYQSCLKSFECLLGLNSNIGIRDLAVQFSCIEAVNMASKILKSYESSLPQTQQVDLDLSRPLFTSAALLSACKILKLKVDKNKMVATSGVKKAIFDRLCKQLEKIGQQVDREPGDVATPPRKRKKIVVEAPAKEMEKVEEMPHKPQKDEDLTQDYEEWKRKILENAASAQKATAE,not soluble
4,METATHYDLFIIGGGINGCGLARDAAGRGFKVGLAEMNDLASGTSSASTKLIHGGLRYLEYYEFRLVREALKEREIIWRMAPHIVRPLRFLLPYHKKLRPAWMLRFGLFIYDYLGNWNQKLWRSKTVNFSKSFCSILKEEYHKGFEYSDARVDDARLVIANARDAEKWGAVIKVRTEVLSLKSEEKKWVVILRDKLSGKESCVTASYVANMTGPWINHILSNVLDCKENPPVRLVRGSHILVPKLYAHDRAYIFQNGDGRILFSIPYQEEFTLLGTTDCGYQGDPADVHITDTEIDYICTAASEYFVQPVLRESIVWTYSGVRPLYDDGASKAQEITRDYVLKEMGTESTPRILNLYGGKITTYRKLAEDAMKFVEKALGKKGKPWTINSTLPGGDFPHNKLDTIENKIALLVPDLDAFTYRRLARSYGCEALMIFANGKADKGKNFGHGLYEVEVKWLMEKEWAKTCEDVLWRRSKLGLLFNKKEINALTAYMQKIQDNEQNS,not soluble
5,MGSDKIHHHHHHMKYDVVVIGAGGAGYHGAFRLAKAKYNVLMADPKGELGGNCLYSGCVPSKTVREVIQTAWRLTNIANVKIPLDFSTVQDRKDYVQELRFKQHKRNMSQYETLTFYKGYVKIKDPTHVIVKTDEGKEIEAETRYMIIASGAETAKLRLPGVEYCLTSDDIFGYKTSFRKLPQDMVIIGAGYIGLEIASIFRLMGVQTHIIEMLDRALITLEDQDIVNTLLSILKLNIKFNSPVTEVKKIKDDEYEVIYSTKDGSKKSIFTNSVVLAAGRRPVIPEGAREIGLSISKTGIVVDETMKTNIPNVFATGDANGLAPYYHAAVRMSIAAANNIMANGMPVDYVDVKSIPVTIYTIPSLSYVGILPSKARKMGIEIVEAEYNMEEDVSAQIYGQKEGVLKLIFERGSMRLIGAWMIGVHSQYLINELGLAVAYGLNAKQLASFAEQHPSTNEIISYTARKVI,not soluble
6,MGSDKIHHHHHHTVQNAQLSQQHAPCVDNKWPKSRLLSLAGSQFEMTDADRNDMVMRLISCLADTDPELRDAVAFSGLSHWLRANDLTNETVKSLYTKLSGDVRKRKDDPNGVYLPFAILTLSEVARVDRVSPFFEPAERDALSKLAADTMAGIQDYRGFDETIGWRHQVAHSADLLLQLVLNPALSSDDIMELVTSIQHQLSPAGHFYVYGEPERLARPVLYAMLRDDIPDSFWHSQLARWSTPVHIEGWDKAFSSNAGLAERHNRRAFFSALLLGISGSKQPRLLALQPAIQAAMKKLP,not soluble
7,IFFMEAMSPQQETLGGQPGRSSSLTGVSRLAGGSCTKKKMKTLAERRRSAPSLILDKALQKRPTTRDSPSASVDTCTFLSSLVCSNRTLLIDGRAELKRGLQRQERHLFLFNDLFVVAKIKYNNNFKIKNKIKLTDMWTASCVDEVGEGNTNAMKSFVLGWPTVNFVATFSSPEQKDKWLSLLQRYINLEKEKDYPKSIPLKIFAKDIGNCAYSKTITVMNSDTANEVINMSLPMLGITGSERDYQLWVNSGKEEAPYPLIGHEYPYGIKMSHLRDSALLTPGSKDSTTPFNLQEPFLMEQLPREMQCQFILKPSRLAAAQQLSDSGHKTFKRRRSIINWAFWRGSSTHLDNLPSSPTSPMPGQLFGISLPNICENDNLPKPVLDMLFFLNQKGPLTKGIFRQSANVKSCRELKEKLNSGVEVHLDCESIFVIASVLKDFLRNIPGSIFSSDLYDHWVSVMDQGNDEEKINTVQRLLDQLPRANVVLLRYLFGVLHNIEQHSSSNQMTAFNLAVCVAPSILWPPASSSPELENEFTKKVSLLIQFLIENCLRIFGEEITSLFREVSVRCDTRENASDISCFQLNDSSYDSLENELNEDVDAPCSDLVKKLGQGSRSMDSVLTLSDYDLDQPEVEGLLTLSDFDLAHSKDEDVQMKRPLESKPVNILVYTKIPLRDHARAPSAMCTPSYLSTAAANAAKSLRRHRRCSEPSIDYLDSKLSYLREFYQKKLRKSSCDAILSQKDEDYLKQNQPLQEEGKTCFKQSLVTGTDVSKKNATTQNTKKKSLSGSEGNHVKLFPKSKPVAISVASYSPMSSQDHSKNQPFDVNTSGYSPPHTADALKGPRTHRRCSEPNIEDQNRKLTYLRGIYSKKQHKTSCEAGLLHGEEDYLKRHKSLQMEGQKLINQSLVMGIEVGKSSATNQNTEKVLPPRLNLCPRTSYSSLSSPGTSPSGSSVSSQDSAFSQISEHSVFTPTETSSPIDCTFQAQRKREDLSPDFSNASHVSGMPGPSSGQACSRPAYTKKDTMEWHSQMHSVTLHPSTWLRNGVASLKNWSLKKKAKAARPEEEKIASPKGPLEPPPHASGVPEANSLQEEQKDLPLRAAEGLSPVQSAQRCSSSPFQDSERHCSSPFSLVESRLKLCMKSHEEIEPGSQSSSGSLPWERASASSWTLEDATSPDSGPTVVCDIEDRYLTKDI,soluble
8,MSLEFLEQEGQEVLTKEIKAGFCEITPSSITEQTTKPQLDETQLVDEYVHTKELETTPIPISFATKEVLFEEVFNTPSTQQVDESVLVNEYIELTQQIKNASEQVSSNHTHKFSVATEPAATKAVSETMLLDDYVEMVEQDVQAQTALPQAALDPTVSLTFSSPIDSNAILVYPEMKVPHVFDTVAPTTTTVPLDQTQLLDELVEVPVLTHTVTPAPLQPKAAPTNFALDQTQLVDELVTVPLTHTLVNESAPVTPVVVTSPAAEHSFSITTVDKANLTNALSQTVVIKPAEDSAHQSAVLDKEIATKQAQLQQLQAQIELRQAQLETPPVTYMGVEEYKLLPVQDVVPVQPTVSFEMTLLQEQLDKALKHNAALQIQLEEQLAKPLQYDQSPVLQERIELLQNQNTNLTQELNELQQKLFKSQNNSLLLARLEEENRTLKQHLQNNLPEANQLNFVLEKQLEQLQQDKHSLTLQIEQYKFDSKKHQEQLALIPSLRSEINSLETEVISLKQTNQRLSLIERENNFLKTEIKQLRETKLNDENTKYRNLLKQYELMRADSDAKLKELEHEQHLAHQHHQEQLAQLQRHNEALVKELDQVKATNFELGLAAQGFEQQKVVLEQKNSSLLASLQAAEENVQALGITNSELQNQLNVLEFTHKEKTAFDSKTLTLTKQQLEQTQFDLSLTQEQLATFKQQNQSLTDKLMASETQLNHLQQSDENLTQLQTQHELLQESYNKLQDEANHTQQQFHQAQNELDAAHQQLALFKQNNEELTDKCSNIQNELHDLNRVKTNWENLNTEHNLLQDKYAQQKEQMQHEHSNLAQIQAEHELLQESYNKVKAELNEIQITNLNEANAQYQDLLSAYELLQSNHNKLKQELQVLNQVNLEKQQLAQKLHNTHQSLSQTHAELTQLQAAYNNLQATPPVSDELLEQFNQVQLEKQRLLQQNLALVHELQYFNELNSSQTHEIKTKQDETVKEVIIVEKEIPVPPEKKPRLKKRDIVIENKEDALGKLSKKERIQAYAERLAKINGKQEGHHHHHH,not soluble
9,MSLTRLLIRDFRNIETADLALSPGFNFLVGANGSGKTSVLEAIYTLGHGRAFRSLQIGRVIRHEQEAFVLHGRLQGEERETAIGLTKDKQGDSKVRIDGTDGHKVAELAHLMPMQLITPEGFTLLNGGPKYRRAFLDWGCFHNEPGFFTAWSNLKRLLKQRNAALRQVTRYEQLRPWDKELIPLAEQISTWRAEYSAGIAADMADTCKQFLPEFSLTFSFQRGWEKETEYAEVLERNFERDRQLTYTAHGPHKADLRIRADGAPVEDTLSRGQLKLLMCALRLAQGEFLTRESGRRCLYLIDDFASELDDERRGLLASRLKATQSQVFVSAISAEHVIDMSDENSKMFTVEKGKITD,soluble
10,MGSDKIHHHHHHMPFVFACLSIKIPRKGTVMAEPLATTPIRYSFGADEHLFAEVSESMSLEAFFKGMAVTRAVERMALDGVLDVCLANASFQVRFDPDRIAPEALLEAVRGAEAQAVAERSLQTRIIEIPVLYNDPWTHETLMRFRDRHQDPTSTDLEYAARINGLADVEAFIAAHSGAPWFVSMVGFVAGLPFMFQMVERERQLQVPKYLRPRTDTPKLTLGHGGCFGCIYSVRGAGGYQMFGVTPAPIYDPQQTLNYLKEHMVFFRPGDIVQFKPIDRRTYDQAVAEVEDGCFDLRIRPVAFSLDAFLADPVGYPKSLQEVLA,not soluble
11,MDLSQLTPRRPYLLRAFYEWLLDNQLTPHLVVDVTLPGVQVPMEYARDGQIVLNIAPRAVGNLELANDEVRFNARFGGIPRQVSVPLAAVLAIYARENGAGTMFEPEAAYDEDTSIMN,soluble
12,SEAWEYFHLAPARAGHHPNQYATCRLCGRQVSRGPGVNVGTTALWKHLKSMHREELEKSGHGQ,soluble
13,MNKRDYMNTSVQEPPLDYSFRSIHVIQDLVNEEPRTGLRPLKRSKSGKSLTQSLWLNNNVLNDLRDFNQVASQLLEHPENLAWIDLSFNDLTSIDPVLTTFFNLSVLYLHGNSIQRLGEVNKLAVLPRLRSLTLHGNPMEEEKGYRQYVLCTLSRITTFDFSGVTKADRTTAEVWKRMNIKPKKAWTKQNTL,soluble
14,MGHHHHHHSHMSEDNRPLTGLAAAIAGAKLRKVSRMEDTSFPSGGNAIGVNSASSKTDTGRGNGPLPLGGSGLMEEMSALLARRRRIAEKGSTIETEQKEDKGEDSEPVTSKASSTSTPEPTRKPWERTNTMNGSKSPVISRPKSTPLSQPSANGVQTEGLDYDRLKQDILDEMRKELTKLKEELIDAIRQELSKSNTA,not soluble
15,MAHHHHHHMNGEVSVERKFSPSQPGYGSEGCRQSMGTTTNNGARRFSATELGRTVGMPYSFDTMRYLKDVMRRREDIHTMRVMPKTHLLAQLVLLEQSGREMLIHQERFCRQQIAHKRDDERSKREEQRLQQKNRDRLEEMKRKQVEELAALKEGVTSFQRQIDAEVKEKLRIVCMLQPRMNVAAAVLAEVKNEASPFLLLPELMEEEKRVAKALKADSRYSKSSADSGAVPHWMRTCVAGSFNVAAILQDAPYRATVDDAVKVTNAFLRKVVVVRDVNDRSVVGWVHVRAGSDPATLATELVRLPAPEELPDQGNIGVVWPKEDFLELSRRAKANNNVETQQLLQSVLGISSASLHCVGLTTHEFSKKEVDTIGSLASV,not soluble
